Measured values published in article PMC5713876, “Molecular architectures of benzoic acid-specific type III polyketide synthases” (Acta Crystallographica. Section D, Structural Biology, 2017).

What was measured:
MdBIS3 (MdBIS3.1) = target: T1, MdBIS3 (MdBIS3.1) (Malus domestica, UniProt K9MST3); assay: X-ray crystal structure, […] Å; format: binding; conditions: crystals soaked with 15 mM benzoyl-CoA; CoA tunnel and active site, partial occupancy; active-site cysteine oxidized to sulfinic acid
T1 construct: cDNA in pHIS8, E. coli BL21(DE3), N-terminal His8 tag cut with thrombin; homodimer

[1] = substrate: CC(C)(COP(=O)(O)OP(=O)(O)OC[C@H]1O[C@@H](n2cnc3c(N)ncnc32)[C@H](O)[C@@H]1OP(=O)(O)O)[C@@H](O)C(=O)NCCC(=O)NCCSC(=O)CC(=O)O; assay: steady-state kinetics, LC-MS product quantification; format: biochemical, Malus domestica; conditions: coumaroyl-CoA held constant (standard 60 µM), 0.1 M potassium phosphate pH 7.0, 37°C
Source text: (§1) steady-state kinetics, LC-MS product quantification on MdCHS2

[2] = substrate: CC(C)(COP(=O)(O)OP(=O)(O)OC[C@H]1O[C@@H](n2cnc3c(N)ncnc32)[C@H](O)[C@@H]1OP(=O)(O)O)[C@@H](O)C(=O)NCCC(=O)NCCSC(=O)/C=C/c1ccc(O)cc1; assay: as above; format: biochemical, Malus domestica; conditions: malonyl-CoA held constant (standard 100 µM), 0.1 M potassium phosphate pH 7.0, 37°C
Source text: as §1

[3] = substrate: CC(C)(COP(=O)(O)OP(=O)(O)OC[C@H]1O[C@@H](n2cnc3c(N)ncnc32)[C@H](O)[C@@H]1OP(=O)(O)O)[C@@H](O)C(=O)NCCC(=O)NCCSC(=O)c1ccccc1O; assay: as above; format: biochemical, Malus domestica; conditions: malonyl-CoA held constant (standard 60 µM), 0.1 M potassium phosphate pH 7.0, 37°C
Source text: (§2) steady-state kinetics, LC-MS product quantification on MdBIS1 (MdBIS1.1)

[4] = substrate: CC(C)(COP(=O)(O)OP(=O)(O)OC[C@H]1O[C@@H](n2cnc3c(N)ncnc32)[C@H](O)[C@@H]1OP(=O)(O)O)[C@@H](O)C(=O)NCCC(=O)NCCSC(=O)c1ccccc1; assay: as above; format: biochemical, Malus domestica; conditions: malonyl-CoA held constant (standard 60 µM), 0.1 M potassium phosphate pH 7.0, 37°C
Source text: as §2

[5] = substrate: CC(C)(COP(=O)(O)OP(=O)(O)OC[C@H]1O[C@@H](n2cnc3c(N)ncnc32)[C@H](O)[C@@H]1OP(=O)(O)O)[C@@H](O)C(=O)NCCC(=O)NCCSC(=O)CC(=O)O; assay: as above; format: biochemical, Malus domestica; conditions: starter substrate held constant (standard 15 µM; which starter not told), 0.1 M potassium phosphate pH 7.0, 37°C
Source text: as §2

[6] = substrate: CC(C)(COP(=O)(O)OP(=O)(O)OC[C@H]1O[C@@H](n2cnc3c(N)ncnc32)[C@H](O)[C@@H]1OP(=O)(O)O)[C@@H](O)C(=O)NCCC(=O)NCCSC(=O)c1ccccc1O; assay: as above; format: biochemical, Malus domestica; conditions: malonyl-CoA held constant (standard 60 µM), 0.1 M potassium phosphate pH 7.0, 37°C; remark: listed apart in the source
Source text: (§3) steady-state kinetics, LC-MS product quantification on MdBIS3 (MdBIS3.1)

[7] = substrate: CC(C)(COP(=O)(O)OP(=O)(O)OC[C@H]1O[C@@H](n2cnc3c(N)ncnc32)[C@H](O)[C@@H]1OP(=O)(O)O)[C@@H](O)C(=O)NCCC(=O)NCCSC(=O)c1ccccc1; assay: as above; format: biochemical, Malus domestica; conditions: malonyl-CoA held constant (standard 60 µM), 0.1 M potassium phosphate pH 7.0, 37°C; remark: listed apart in the source
Source text: as §3

[8] = substrate: CC(C)(COP(=O)(O)OP(=O)(O)OC[C@H]1O[C@@H](n2cnc3c(N)ncnc32)[C@H](O)[C@@H]1OP(=O)(O)O)[C@@H](O)C(=O)NCCC(=O)NCCSC(=O)CC(=O)O; assay: as above; format: biochemical, Malus domestica; conditions: starter substrate held constant (standard 15 µM; which starter not told), 0.1 M potassium phosphate pH 7.0, 37°C; remark: listed apart in the source
Source text: as §3

[9] = substrate: CC(C)(COP(=O)(O)OP(=O)(O)OC[C@H]1O[C@@H](n2cnc3c(N)ncnc32)[C@H](O)[C@@H]1OP(=O)(O)O)[C@@H](O)C(=O)NCCC(=O)NCCSC(=O)c1ccccc1; assay: as above; format: biochemical, Hypericum androsaemum; conditions: malonyl-CoA held constant (standard 80 µM), 0.1 M potassium phosphate pH 7.0, 37°C
Source text: (§4) steady-state kinetics, LC-MS product quantification on HaBPS

[10] = substrate: CC(C)(COP(=O)(O)OP(=O)(O)OC[C@H]1O[C@@H](n2cnc3c(N)ncnc32)[C@H](O)[C@@H]1OP(=O)(O)O)[C@@H](O)C(=O)NCCC(=O)NCCSC(=O)CC(=O)O; assay: as above; format: biochemical, Hypericum androsaemum; conditions: starter substrate held constant (standard 20 µM), 0.1 M potassium phosphate pH 7.0, 37°C
Source text: as §4

For `CC(C)(COP(=O)(O)OP(=O)(O)OC[C@H]1O[C@@H](n2cnc3c(N)ncnc32)[C@H](O)[C@@H]1OP(=O)(O)O)[C@@H](O)C(=O)NCCC(=O)NCCSC(=O)c1ccccc1` [Benzoyl-CoA], the “X-ray crystal structure, 1.20 Å” value (MdBIS3 (MdBIS3.1)) was “co-crystallization of MdBIS3 with benzoyl-CoA, resulting in intact benzoyl-CoA molecules with partial occupancies”.

B1: MdCHS2 (Malus domestica) (protein)
chain: MVTVEEVRKAQRAEGPATVLAIGTATPSNCVDQATYPDYYFRITNSEHKTELKEKFQRMCDKSMIKKRYMYLTEEILKENPTVCEYMAPSLDARQDMVVVEVPRLGKEAATKAIKEWGQPKSKITHLVFCTTSGVDMPGADYQLTKLLGLRPYVKRLMMYQQGCFAGGTVLRLAKDLAENNKGARVLVVCSEITAVTFRGPSDTHLDSLVGQALFGDGAAAVIIGADPLPEVEKPLFELVSAAQTILPDSDGAIDGHLREVGLTFHLLKDVPGLISKNIEKSLNEAFKPIGISDWNSLFWIAHPGGPAILDQVESKLALKPEKLEATRQVLSNYGNMSSACVLFILDEVRRKSTEKGLRTTGEGLEWGVLFGFGPGLTVETVVLHSVAA
notes: cDNA in pHIS8, E. coli BL21(DE3), N-terminal His8 tag cut with thrombin; homodimer
With B1 the Km [1] was 12.8 ± 2.7 µM, the Km [2] was 17.9 ± 6.1 µM and the kcat [2] was 0.02 ± 0.00167 s⁻¹. For the same molecule, the kcat/Km [2] was 1120 M⁻¹ s⁻¹.

B2: MdBIS1 (MdBIS1.1) (Malus domestica) (protein)
chain: MAPLVKNHGEHQHAKILAIGTANPPNVYYQKDYPDFLFRVTKNEHRTDLREKFDRICEKSRTRKRYLHLTEEILKANPSIYTYGAPSLDVRQDMLNPEVPKLGQQAALKAIKEWGQPISKITHLIFCTASCVDMPGADFQLVKLLGLNPSVTRTMIYEAGCYAGATVLRLAKDFAENNEGARVLVVCAEITTVFFHGLTDTHLDILVGQALFADGASAVIVGANPEPKIERPLFEIVACRQTIIPNSEHGVVANIREMGFTYYLSGEVPKFVGGNVVDFLTKTFEKVDGKNKDWNSLFFSVHPGGPAIVDQVEEQLGLKEGKLRATRHVLSEYGNMGAPSVHFILDDMRKKSIEEGKSTTGEGLEWGVVIGIGPGLTVETAVLRSESITC
notes: cDNA in pHIS8, E. coli BL21(DE3), N-terminal His8 tag cut with thrombin
Work on B2 yielded a Km [3] of 1.6 ± 0.4 µM, a kcat [3] of 0.2083 ± 0.00167 s⁻¹ and a kcat/Km [3] of 130000 M⁻¹ s⁻¹. The Km [4] was 0.8 ± 0.2 µM, the kcat [4] was 0.2833 ± 0.00167 s⁻¹ and the kcat/Km [4] was 350000 M⁻¹ s⁻¹. The Km [5] was 6.8 ± 1.7 µM.

B3: MdBIS3 (MdBIS3.1) (Malus domestica) (protein)
chain: MAPLVKNEPQHAKILAIGTANPPNVYHQKDYPDFLFRVTKNEHRTDLREKFDRICEKSRTKKRYLHLTEEMLKANPNIYTYGAPSLDVRQDICNIEVPKLGQEAALKAIKEWGQPISRITHLIFCTASCVDMPGCDFQLIKLLGLDPSVTRTMIYEAGCYAGATVLRMAKDFAENNKGARVLVVCAEITTVFFHGLTDTHLDILVGQALFADGASAVIVGANPEPEIERPLFEIVACRQTILPNSEHGVVANIREMGFNYYLSGDVPKFVGGNVVDFMTKTFEKVDGKKKDWNSLFFSVHPGGPAIVDQVEEKLGLKEGKLRATRHVLSEYGNMGAPTVHFILDEMRNKSIEEGKTTTGEGLEWGVVIGIGPGLTVETAVLRSESIRC
notes: as for B1
With B3 the Km [6] was 1.1 ± 0.4 µM, the kcat [6] was 0.1 ± 0.00167 s⁻¹ and the kcat/Km [6] was 90000 M⁻¹ s⁻¹. For the same molecule, the Km [7] was 0.5 ± 0.1 µM, the kcat [7] was 0.135 s⁻¹ and the kcat/Km [7] was 270000 M⁻¹ s⁻¹. For the same molecule, the Km [8] was 4.1 ± 1.9 µM.

B4: HaBPS (Hypericum androsaemum) (protein)
chain: MAPAMEYSTQNGQGEGKKRASVLAIGTTNPEHFILQEDYPDFYFRNTNSEHMTELKEKFKRICVKSHIRKRHFYLTEEILKENQGIATYGAGSLDARQRILETEVPKLGQEAALKAIAEWGQPISKITHVVFATTSGFMMPGADYVITRLLGLNRTVRRVMLYNQGCFAGGTALRVAKDLAENNEGARVLVVCAENTAMTFHAPNESHLDVIVGQAMFSDGAAALIIGACPDVASGERAVFNILSASQTIVPGSDGAITAHFYEMGMSYFLKEDVIPLFRDNIAAVMEEAFSPLGVSDWNSLFYSIHPGGRGIIDGVAGNLGIKDENLVATRHVLGEYGNMGSACVMFILDELRKSSKVNGKPTTGDGKEFGCLIGLGPGLTVEAVVLQSVPILQ
notes: codon-optimized synthetic gene in pHIS8, E. coli BL21(DE3), N-terminal His8 tag cut with thrombin; homodimer
B4 was tested, and the Km [9] was 1.3 ± 0.5 µM, the kcat [9] was 0.0183 s⁻¹ and the kcat/Km [9] was 14000 M⁻¹ s⁻¹. It also gave a Km [10] of 2.8 ± 0.7 µM.
